Ends that are not written are not given here.

One assay has as its target T1, recombinant human C5a (human, UniProt P01031 678-751).
T1 construct: domain: C5a anaphylatoxin (74-amino acid peptide); The calcium assay names recombinant human C5a; The SPR section says only 'C5a'; C5a is a 74-residue fragment of it; also called RhC5a; C5a anaphylatoxin
T1 sequence (looked up): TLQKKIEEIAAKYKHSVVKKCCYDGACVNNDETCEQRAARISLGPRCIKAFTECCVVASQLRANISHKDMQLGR
The assay can be described thus: SPR (Biacore), C5a amine-coupled to CM5 chip, peptide as analyte. On the procedure: (§1) FIG. 1. Binding of C-peptides to immobilized PL37-MAP and C5a using Biacore equipment. An overlay plot of response curves obtained from the Biacore instrument when various concentrations of Pep-A and Pep-B were injected. All samples were injected at time 0, and the association was monitored as an increase in RU. a, Various concentrations of Pep-A were injected over the PL37-MAP-coupled flow cell. b, The same concentrations of Pep-B were also injected over the PL37-MAP-coupled flow cell. c, Pep-A was injected over the C5a-coupled flow cell at the same concentrations of Pep-A as in FIG. 1a. d, The same concentrations of Pep-B were also injected over the C5a-coupled flow cell.
(§2) Binding interactions between PL37 or C5a with C-peptides were evaluated using surface plasmon resonance (SPR) technology with the Biacore system. PL37 and C5a were covalently immobilized on the CM5 sensor chip by amine coupling methods using N-ethyl-N-(dimethylaminopropyl)carbodiimide/N-hydroxysuccinimide (EDC/NHS) according to the manufacturer's instructions. […] Binding interactions were determined by passing samples simultaneously over both the EA-blocked cell and the flow cell with immobilized PL37 or C5a so as to obtain units of resonance response (RU) by subtraction of the background using Biacore software (BIA evaluation).

For assay [1], the target named is T2, PL37 in multiple antigenic peptide form (human, also: multiple antigenic peptide form, core and copy number not given here, abstract and print the sequence differently).
T2 construct: PL37 is the fragment aa 37-53 of C5a anaphylatoxin; The assays used the MAP form; its core and valency are not described; also called PL37-MAP
T2 peptide: RAARISLGPRCIKAFTE
The assay can be described thus: SPR (Biacore), PL37-MAP amine-coupled to CM5 chip, peptide as analyte. On the procedure: as §1
as §2, with “evaluation). […]” for “evaluation).”
Background: Surface plasmon resonance follows binding to a sensor surface in real time, without labels.

B1: Peptide-B (peptide)
peptide: ASTAPARAGLPRLPKFF
notes: Synthetic 17-residue complementary peptide designed with MIMETIC against PL37; also called Pep-B; C-peptide B
With B1, the binding result (with recombinant human C5a; in assay [1]) was “no binding” throughout.
